The text below walks through data of patent publication US20260209345A1 (IOMX THERAPEUTICS, published 2026).

Where a chain is given by its changes, count along the chain named.

The chains are these.
B1: A-003 (antibody, V domains shown)
VH: QVQLVQSGAEVKKPGSSVKVSCKASGGTFSSYAISWVRQAPGQGLEWMGGIIPIFGTANYAQKFQGRVTITADESTSTAYMELSSLRSEDTAVYYCAKGPPVGSSSWYTDWYFDLWGRGTLVTVSS
VL: SYELTQPPSVSVSPGQTASITCSGDKLGDKYASWYQQKPGQSPVLVIYQDSKRPSGIPERFSGSNSGNTATLTISGTQAEDEADYYCLSYGAHSHGVVFGGGTKLTVL
notes: tested as IgG; also called parental antibody A-003
B2: A-024 (antibody, V domains shown)
VH: B1 VH with G27Y, S30T, S31G, Y32S, I34M, I52L, A58S, N59V
VL: B1 VL
notes: tested as IgG
B3: A-027 (antibody, V domains shown)
VH: B1 VH with T28S, S30T, S31G, I52L, I54S, G56Y, N59V
VL: B1 VL
notes: tested as IgG
B4: A-030 (antibody, V domains shown)
VH: B1 VH with T28S, S30Q, I34F, I52V, F55Y, G56Y, N59T
VL: B1 VL
notes: tested as IgG
B5: A-032 (antibody, V domains shown)
VH: B1 VH with S30Q, I34F, I52V, I54Q, F55Y, G56S, N59V
VL: B1 VL
notes: tested as IgG
B6: A-023 (antibody, V domains shown)
VH: B1 VH with G27Y, S30Q, S31Q, I34M, M48I, I54Q, G56S, A58S, N59V
VL: B1 VL
notes: tested as IgG
B7: A-033 (antibody, V domains shown)
VH: B1 VH with G27Y, Y32H, I34M, I54T, G56K, N59V, Y60F
VL: B1 VL
notes: tested as IgG
B8: A-029 (antibody, V domains shown)
VH: B1 VH with G27Y, S31I, I34M, I54S, G56R, N59V
VL: B1 VL
notes: tested as IgG
B9: A-028 (antibody, V domains shown)
VH: B1 VH with G27Y, T28S, S31E, Y32H, I34M, I54K, G56S, A58S, N59V, Y60F
VL: B1 VL
notes: tested as IgG
B10: A-031 (antibody, V domains shown)
VH: B1 VH with G27Y, S30T, S31K, Y32T, I34M, I54S, F55Y, G56Y, N59V
VL: B1 VL
notes: tested as IgG
B11: A-025 (antibody, V domains shown)
VH: B1 VH with G27Y, S31K, Y32S, I34M, I52V, I54K, G56H, A58S, N59V
VL: B1 VL
notes: tested as IgG
B12: A-026 (antibody, V domains shown)
VH: B1 VH with G27Y, S30T, Y32H, A33G, I34M, I52L, G56H, N59T
VL: B1 VL
notes: tested as IgG
B13: A-017 (antibody, V domains shown)
VH: QVQLVQSGAEVKKPGSSVKVSCKASGGTFSSYAISWVRQAPGQGLEWMGGIIPYFSLANYAPKFQGRVTITADESTSTAYMELSSLRSEDTAVYYCAKDLGTYSSGWPYYYGMDVWGQGTTVTVSS
VL: SYELTQPPSVSVSPGQTASITCSGDKLGDKYASWYQQKPGQSPVLVIYQDSKRPSGIPERFSGSNSGNTATLTISGTQAEDEADYYCQSTTHTSFVFGGGTKLTVL
notes: tested as IgG
B14: A-019 (antibody, V domains shown)
VH: B13 VH with G27Y, S30T, S31T, Y32S, I34M, S35N, L57T
VL: B13 VL
notes: tested as IgG
B15: A-020 (antibody, V domains shown)
VH: B13 VH with S30Q, S31T, G50S, Y54K, S56Y, L57Q, A58S, P62Y
VL: B13 VL
notes: tested as IgG
B16: A-018 (antibody, V domains shown)
VH: B13 VH with S31T, Y32S, Y54I, S56Y, L57T, P62Q
VL: B13 VL
notes: tested as IgG
B17: A-035 (antibody, V domains shown)
VH: B13 VH with Y54I, S56G, L57T, P62Q
VL: B13 VL with S89L, T90S, T91H, H92G, S94L, F95L
notes: tested as IgG
B18: A-021 (antibody, V domains shown)
VH: B13 VH with T28S, F29I, S30T, I34F, S35A, Y54G, S56Y, L57A, P62Q
VL: B13 VL
notes: tested as IgG
B19: A-034 (antibody, V domains shown)
VH: B13 VH with Y54I, S56G, L57T, P62Q
VL: B13 VL with S89L, T90Y, T91G, S94I, F95T
notes: tested as IgG

T4 sequence (Q8N6C8 24-439 limits assumed): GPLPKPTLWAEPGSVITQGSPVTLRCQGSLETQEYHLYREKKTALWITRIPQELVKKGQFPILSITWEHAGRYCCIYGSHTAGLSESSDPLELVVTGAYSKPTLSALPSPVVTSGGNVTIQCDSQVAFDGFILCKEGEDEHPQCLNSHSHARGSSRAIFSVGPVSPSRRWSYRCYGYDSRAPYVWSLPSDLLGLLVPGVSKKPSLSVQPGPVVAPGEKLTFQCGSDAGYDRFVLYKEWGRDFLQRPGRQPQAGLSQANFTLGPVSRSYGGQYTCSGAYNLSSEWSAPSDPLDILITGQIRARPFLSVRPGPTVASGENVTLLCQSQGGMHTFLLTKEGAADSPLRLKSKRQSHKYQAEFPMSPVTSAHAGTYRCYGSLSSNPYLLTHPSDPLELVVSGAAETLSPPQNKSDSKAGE
T2 sequence (Q8N423 22-460 limits assumed): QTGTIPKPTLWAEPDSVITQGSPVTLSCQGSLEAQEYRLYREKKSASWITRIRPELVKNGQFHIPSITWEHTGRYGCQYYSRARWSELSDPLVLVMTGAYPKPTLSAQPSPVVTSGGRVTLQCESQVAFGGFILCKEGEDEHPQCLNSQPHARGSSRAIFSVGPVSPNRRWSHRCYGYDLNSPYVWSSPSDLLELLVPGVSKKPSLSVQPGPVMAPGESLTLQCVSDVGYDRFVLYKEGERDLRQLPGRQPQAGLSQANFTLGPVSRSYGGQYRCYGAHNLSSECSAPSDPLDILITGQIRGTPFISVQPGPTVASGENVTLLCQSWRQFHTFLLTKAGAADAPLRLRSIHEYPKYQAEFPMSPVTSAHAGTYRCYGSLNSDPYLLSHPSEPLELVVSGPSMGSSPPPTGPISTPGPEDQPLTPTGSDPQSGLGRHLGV
T1 sequence (Q8NHL6 24-461 limits assumed): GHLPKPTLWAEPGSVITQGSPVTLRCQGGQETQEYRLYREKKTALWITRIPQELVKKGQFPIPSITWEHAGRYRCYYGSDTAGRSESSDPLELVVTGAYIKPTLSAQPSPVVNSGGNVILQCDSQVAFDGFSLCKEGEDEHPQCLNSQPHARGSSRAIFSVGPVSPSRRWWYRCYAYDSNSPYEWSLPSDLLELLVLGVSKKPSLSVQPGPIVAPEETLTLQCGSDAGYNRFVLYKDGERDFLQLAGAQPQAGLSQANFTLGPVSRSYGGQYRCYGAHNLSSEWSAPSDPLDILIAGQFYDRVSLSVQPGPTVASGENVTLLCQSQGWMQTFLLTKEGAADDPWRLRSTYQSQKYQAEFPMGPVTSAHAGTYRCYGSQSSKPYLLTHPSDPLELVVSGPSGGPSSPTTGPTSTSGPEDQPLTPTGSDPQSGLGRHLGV
T3 sequence (O75019 17-461 limits assumed): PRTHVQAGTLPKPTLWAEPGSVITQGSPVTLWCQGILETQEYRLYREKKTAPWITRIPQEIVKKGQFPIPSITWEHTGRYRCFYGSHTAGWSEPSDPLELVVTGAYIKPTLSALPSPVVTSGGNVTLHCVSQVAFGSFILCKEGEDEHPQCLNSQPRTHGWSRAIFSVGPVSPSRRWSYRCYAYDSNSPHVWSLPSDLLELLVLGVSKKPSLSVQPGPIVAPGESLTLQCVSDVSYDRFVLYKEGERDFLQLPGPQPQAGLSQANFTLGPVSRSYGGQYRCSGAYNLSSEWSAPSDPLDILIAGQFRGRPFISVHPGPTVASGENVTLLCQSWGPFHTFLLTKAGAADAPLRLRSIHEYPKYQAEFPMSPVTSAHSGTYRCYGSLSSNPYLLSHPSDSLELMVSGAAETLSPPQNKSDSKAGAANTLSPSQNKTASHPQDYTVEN

The first experiment addresses T1, recombinant LILRB1 ECD (human, UniProt Q8NHL6 24-461).
T1 construct: also called biotinylated LILRB1 ECD
As to the kind of experiment: ELISA, LILRB1 ECD binding to HLA-G-Fc. On the procedure:
(§1) HLA-G inhibition was tested by ELISA. 384-well Maxisorp plates were coated with 2 ug/mL B2M-HLA-G fused to a mouse IgG2a-Fc and the plates were blocked with 2% (w/v) BSA in PBST. […] 15 ul of the antibody dilution series (300 nM to 0.3 nM) were mixed with 30 μL of the pre-mixed LILRB/Avidin-HRP solution (final antibody concentration 100 nM to 0.1 nM) and incubated for 1 h at room temperature. After three wash cycles with PBST, 20 μL of the antibody/LILRB/Avidin-HRP solution was transferred to the plate with immobilized HLA-G and incubated for 15 min at room temperature. After three wash cycles with PBST, residual LILRB binding to HLA-G was detected by developing the ELISA with TMB substrate.
In general terms: In an ELISA, binding on a coated surface is turned into a signal by an enzyme label.
A word on the IC50: it is the point on the concentration scale where inhibition reaches its midpoint. Regarding B1, the IC50 was 16.5 nM.
On the same count and under the same terms, for B2 the value was 3.9 nM.
The same measure, in the same setting: for B3 the value was 7 nM; for B4, 6.7 nM; for B5, 10.5 nM.
Take B6: the IC50 is 7.5 nM.
On the same count and under the same terms, for B7 the value was 8.3 nM; for B8, 6.5 nM.
For the molecule B9, the IC50 was 3.9 nM.
Regarding B10, the IC50 came to 4.1 nM.
Regarding B11, the IC50 turned out to be 5.1 nM.
Still for that read-out and setting: for B12 the value was 6.1 nM; for B13, 4.5 nM; for B14, 4 nM.
The same measure, in the same setting: for B15 the value was 3.7 nM; for B16, 5 nM.
On the same count and under the same terms, for B17 the value was 1.7 nM; for B18, 4.2 nM.
In the case of B19, the IC50 was found to be 3.3 nM.

The next experiment has as its target T2, recombinant LILRB2 ECD (human, UniProt Q8N423 22-460).
T2 construct: also called biotinylated LILRB2 ECD
As to the kind of experiment: ELISA, LILRB2 ECD binding to HLA-G-Fc. The procedure:
as §1
As for B1, the concentration for half-maximal inhibition (IC50) was 65.8 nM.
The same measure, in the same setting: for B2 the value was 3.3 nM.
The same measure, in the same setting: as for B3, the figure is 5.6 nM; as for B4, 4.4 nM.
On to B5, for which the IC50 turned out to be 7.6 nM.
With B6, the IC50 turned out to be 6.8 nM.
Take B7: the IC50 is 8.6 nM.
On the same count and under the same terms, for B8 the value was 5.6 nM; for B9, 3.9 nM; for B10, 4.2 nM.
Regarding B11, the IC50 was determined as 4.3 nM.
Turning to B12, the IC50 is 5.3 nM.
Regarding B13, the IC50 was determined as 4.4 nM.
Regarding B14, the IC50 is 4.9 nM.
Still for that read-out and setting: for B15 the value was 3.8 nM.
For B16, the IC50 stood at 5.1 nM.
Still for that read-out and setting: as for B17, the figure is 3.5 nM.
Still for that read-out and setting: as for B18, the figure is 5 nM; as for B19, 5.6 nM.

The next experiment addresses T2, recombinant LILRB2 ECD. As to the kind of experiment: BLI, IgG on AHC sensor, ECD in solution. On the procedure:
(§2) Briefly, IgGs were captured on anti-human capture (AHC) biosensors (Sartorius). […] Subsequently, the sensors were dipped into 1× Kinetics Buffer to measure the dissociation over 420 s. All sensorgrams were double referenced against 1× Kinetics Buffer and unloaded […] sensors to subtract sensor drifts and potential reference binding of the analytes. The affinities were determined by applying a 1:1 binding model.
(In general: BLI is a label-free optical method that tracks binding on a fibre tip over time.)
One may read the Kd as a measure of binding affinity in units of concentration. B1: the Kd stood at 73.1 nM.
On the same count and under the same terms, as for B2, the figure is 3.6 nM; as for B3, 1.9 nM; as for B4, 3.2 nM.
The same measure, in the same setting: for B5 the value was 2.5 nM; for B6, 4.3 nM; for B7, 1.4 nM.
Still for that read-out and setting: for B8 the value was 2.7 nM.
With B9, the Kd was determined as 1.6 nM.
The same measure, in the same setting: as for B10, the figure is 0.9 nM; as for B11, 4.2 nM.
The same measure, in the same setting: as for B12, the figure is 3.9 nM; as for B13, 1.7 nM.
In the case of B14, the Kd came to 3.9 nM.
On the same count and under the same terms, as for B15, the figure is 2.9 nM.
On the same count and under the same terms, for B16 the value was 2.7 nM; for B17, 30.8 nM.
With B18, the Kd is 3.1 nM.
Still for that read-out and setting: as for B19, the figure is 82.7 nM.

Another experiment concerns the target T1, recombinant LILRB1 ECD. As to the kind of experiment: BLI, IgG on AHC sensor, ECD in solution. On the procedure:
as §2
For B1, the Kd worked out at 99.4 nM.
As to B2, the Kd was found to be 1.2 nM.
The same measure, in the same setting: for B3 the value was 0.5 nM; for B4, 3.2 nM.
Still for that read-out and setting: as for B5, the figure is 2.2 nM.
Same read-out and setting: for B6 the value was 3.1 nM; for B7, 0.5 nM; for B8, 1.9 nM.
Regarding B9, the Kd is 1.8 nM.
The same measure, in the same setting: as for B10, the figure is 0.8 nM.
Still for that read-out and setting: as for B11, the figure is 1.8 nM; as for B12, 4.4 nM; as for B13, 2.3 nM.
Same read-out and setting: for B14 the value was 20.7 nM; for B15, 21.2 nM; for B16, 6.2 nM.
In the case of B17, the Kd worked out at 12.9 nM.
B18: the equilibrium dissociation constant (Kd) was 4.9 nM.
On to B19, for which the Kd stood at 16.4 nM.

Another experiment concerns the target T3, recombinant LILRA1 ECD (human, UniProt O75019 17-461).
T3 construct: whole canonical entry named; also called LILA1
As to the kind of experiment: BLI, IgG on AHC sensor, ECD in solution. On the procedure: as §2
As for B1, the Kd came out at 342 nM.
Same read-out and setting: as for B2, the figure is 31.8 nM.
Same read-out and setting: as for B3, the figure is 33.9 nM.
For the molecule B4, the dissociation constant Kd was 63.8 nM.
Same read-out and setting: for B5 the value was 79.5 nM.
The same measure, in the same setting: as for B6, the figure is 82.4 nM; as for B7, 23 nM.
In the case of B8, the Kd came to 29.5 nM.
On the same count and under the same terms, for B9 the value was 48.3 nM; for B10, 11.6 nM; for B11, 71.3 nM.
For the molecule B12, the Kd stood at 120 nM.
The same measure, in the same setting: for B13 the value was 591 nM.
Same read-out and setting: as for B14, the figure is 1030 nM; as for B15, 316 nM.
For the molecule B16, the Kd was 808 nM.
On the same count and under the same terms, for B17 the value was 734 nM; for B18, 541 nM.
The same measure, in the same setting: as for B19, the figure is 2690 nM.

A further experiment addresses T4, recombinant LILRA3 (human, UniProt Q8N6C8 24-439).
T4 construct: whole entry named; also called LILRA3 ECD; LILA3
Briefly: BLI, IgG on AHC sensor, ECD in solution. On the procedure: as §2
In the case of B1, the Kd stood at 519 nM.
Regarding B2, the Kd is 64.8 nM.
Same read-out and setting: for B3 the value was 124 nM; for B4, 124 nM.
For B5, the Kd was 253 nM.
For B6, the Kd came to 230 nM.
Still for that read-out and setting: as for B7, the figure is 84.8 nM; as for B8, 123 nM.
Regarding B9, the Kd worked out at 187 nM.
On the same count and under the same terms, as for B10, the figure is 50.1 nM; as for B11, 166 nM.
The same measure, in the same setting: as for B12, the figure is 79.3 nM.
Take B13: the Kd is 223 nM.
The same measure, in the same setting: for B14 the value was 144 nM; for B15, 392 nM; for B16, 212 nM.
Take B17: the equilibrium dissociation constant (Kd) turned out to be 1250 nM.
Same read-out and setting: for B18 the value was 157 nM; for B19, 678 nM.
